Experimental data taken from the supplement of paper PMC11246515.
± gives the standard deviation of the averaged measurements.

Experiment: total protein half-life in vivo (active degradation + dilution); higher = more stable protein
[1] = wild type E. coli NCM3722, growth: N-lim chemostat, doubling time 6 h
[2] = wild type E. coli NCM3722, growth: P-lim chemostat, doubling time 12 h
[3] = E. coli NCM3722 delta-clpP delta-lon delta-hslV, growth: N-lim chemostat, doubling time 6 h
[4] = E. coli NCM3722 delta-clpP, growth: N-lim chemostat, doubling time 6 h
[5] = E. coli NCM3722 delta-hslV, growth: N-lim chemostat, doubling time 6 h
[6] = E. coli NCM3722 delta-lon, growth: N-lim chemostat, doubling time 6 h
[7] = E. coli NCM3722 delta-smpB, growth: N-lim chemostat, doubling time 6 h
[8] = wild type E. coli NCM3722, growth: C-lim chemostat, doubling time 3 h
[9] = wild type E. coli NCM3722, growth: C-lim chemostat, doubling time 6 h
[10] = wild type E. coli NCM3722, growth: C-lim chemostat, doubling time 12 h
[11] = wild type E. coli NCM3722, growth: N-lim chemostat, doubling time 12 h
[12] = wild type E. coli NCM3722, growth: P-lim chemostat, doubling time 6 h

| Sequence | total protein half-life in vivo [1] | total protein half-life in vivo [2] | total protein half-life in vivo [3] | total protein half-life in vivo [4] | total protein half-life in vivo [5] | total protein half-life in vivo [6] | total protein half-life in vivo [7] | total protein half-life in vivo [8] | total protein half-life in vivo [9] | total protein half-life in vivo [10] | total protein half-life in vivo [11] | total protein half-life in vivo [12] |
| --- | --- | --- | --- | --- | --- | --- | --- | --- | --- | --- | --- | --- |
| MAFVSEREIVRKIFSKKIDFTILAFFYISSIFFLLCSGVLFQYFTAAFTKGNCYECSMKLDYIKQFYFSLETAWYLISAVAVFIASVFIQHRIKAYLTLLAITWIVLTITDVALIHALDNIAMNNILLNILYNLFGAILLSLFMCLSNSLLFHLNKIKHIPMILSAMIPLVSAIIIAILITAVIYLLFARQAVEIEMDISEGSDIAYVGVKDNEESFGFLNDKKTDTPTYLDVIKNGSLIYNDTQGLSGADIYIVSGCYALPDLLRNVPLDAKKSFLNVKKLEITQKLPMMGFIQGESADVMPKAASRLSLSKQDDKFMLASSVTDSQIKFKSNNAQLMVAFAFMPITTNGILHDYTYDIIINDKKYKIENHVAPLSRLDKNKKMKCEYQQISDLTNTYNINANYLTGFLLVLKPDDIINYNNSPSVLLKTDFAFYKKTYQKLDKIYDDISNGKLSSLRATGISQFSINGKHLSLRPESEIIISEGSLYGLVNKSKKIKIYGTADLVFVDNKIMNLRKITYLQSKLEIFGSSIMDILKYIFGLGLLAISIKFIHSYFKNDVNENLFL | 2.06 h | 2.3 ± 0.71 h | – | – | – | – | – | – | – | – | – | – |
| MPLLDSFTVDHTRMEAPAVRVAKTMNTPHGDAITVFDLRFCVPNKEVMPERGIHTLEHLFAGFMRNHLNGNGVEIIDISPMGCRTGFYMSLIGTPDEQRVADAWKAAMEDVLKVQDQNQIPELNVYQCGTYQMHSLQEAQDIARSILERDVRINSNEELALPKEKLQELHI | 3.61 ± 0.1 h | 9.47 ± 0.63 h | 5.42 ± 0.74 h | 4.79 ± 0.64 h | 4.37 ± 0.6 h | 4.38 ± 0.28 h | 3.97 ± 0.12 h | 2.71 ± 0.32 h | 4.05 ± 0.31 h | 7.07 ± 0.68 h | 5.61 ± 0.47 h | 4.72 ± 0.19 h |
| MARTKLKFRLHRAVIVLFCLALLVALMQGASWFSQNHQRQRNPQLEELARTLARQVTLNVAPLMRTDSPDEKRIQAILDQLTDESRILDAGVYDEQGDLIARSGESVEVRDRLALDGKKAGGYFNQQIVEPIAGKNGPLGYLRLTLDTHTLATEAQQVDNTTNILRLMLLLSLAIGVVLTRTLLQGKRTRWQQSPFLLTASKPVPEEEESEKKE [P0AGC7] | 3.69 ± 0.5 h | 9.34 ± 0.24 h | 4.45 ± 0.17 h | 4.93 ± 0.059 h | 4.9 ± 1 h | 4.57 ± 0.81 h | 4.34 ± 0.23 h | 3.05 ± 0.13 h | 6.19 ± 1.3 h | – | 6.81 ± 0.24 h | 5.23 ± 0.067 h |
| MASSNLIKQLQERGLVAQVTDEEALAERLAQGPIALYCGFDPTADSLHLGHLVPLLCLKRFQQAGHKPVALVGGATGLIGDPSFKAAERKLNTEETVQEWVDKIRKQVAPFLDFDCGENSAIAANNYDWFGNMNVLTFLRDIGKHFSVNQMINKEAVKQRLNREDQGISFTEFSYNLLQGYDFACLNKQYGVVLQIGGSDQWGNITSGIDLTRRLHQNQVFGLTVPLITKADGTKFGKTEGGAVWLDPKKTSPYKFYQFWINTADADVYRFLKFFTFMSIEEINALEEEDKNSGKAPRAQYVLAEQVTRLVHGEEGLQAAKRITECLFSGSLSALSEADFEQLAQDGVPMVEMEKGADLMQALVDSELQPSRGQARKTIASNAITINGEKQSDPEYFFKEEDRLFGRFTLLRRGKKNYCLICWK [P0AGJ9] | 5.51 ± 0.065 h | 12.2 ± 0.76 h | 5.31 ± 0.33 h | 5.55 ± 0.44 h | 5.61 ± 0.41 h | 5.87 ± 0.23 h | 5.58 ± 0.69 h | 3.11 ± 0.094 h | 6.32 ± 0.36 h | – | 10.5 ± 0.76 h | 6.271 ± 0.031 h |
| MGIKQHNGNTKADRLAELKIRSPSIQLIKFGAIGLNAIIFSPLLIAADTGSQYGTNITINDGDRITGDTADPSGNLYGVMTPAGNTPGNINLGNDVTVNVNDASGYAKGIIIQGKNSSLTANRLTVDVVGQTSAIGINLIGDYTHADLGTGSTIKSNDDGIIIGHSSTLTATQFTIENSNGIGLTINDYGTSVDLGSGSKITTDGSTGVYIGGLNGNNANGAARFTATDLTIDVQGYSAMGINVQKNSVVDLGTNSTIKTNGDNAHGLWSFGQVSANALTVDVTGAAANGVEVRGGTTTIGADSHISSAQGGGLVTSGSDAIINFTGTAAQRNSIFSGGSYGASAQTATAVVNMQNTDITVDRNGSLALGLWALSGGRITGDSLAITGAAGARGIYAMTNSQIDLTSDLVIDMSTPDQMAIATQHDDGYAASRINASGRMLINGSVLSKGGLINLDMHPGSVWTGSSLSDNVNGGKLDVAMNNSVWNVTSNSNLDTLALSHSTVDFASHGSTAGTFATLNVENLSGNSTFIMRADVVGEGNGVNNKGDLLNISGSSAGNHVLAIRNQGSEATTGNEVLTVVKTTDGAASFSASSQVELGGYLYDVRKNGTNWELYASGTVPEPTPNPEPTPAPAQPPIVNPDPTPEPAPTPKPTTTADAGGNYLNVGYLLNYVENRTLMQRMGDLRNQSKDGNIWLRSYGGSLDSFASGKLSGFDMGYSGIQFGGDKRLSDVMPLYVGLYIGSTHASPDYSGGDGTARSDYMGMYASYMAQNGFYSDLVIKASRQKNSFHVLDSQNNGVNANGTANGMSISLEAGQRFNLSPTGYGFYIEPQTQLTYSHQNEMTMKASNGLNIHLNHYESLLGRASMILGYDITAGNSQLNVYVKTGAIREFSGDTEYLLNNSREKYSFKGNGWNNGVGVSAQYNKQHTFYLEADYTQGNLFDQKQVNGGYRFSF | 7.13 h | 12.5 ± 2.7 h | – | > 8 h | 6.81 ± 1.4 h | 5.53 ± 0.71 h | 5.18 ± 1 h | – | – | > 16 h | 11.6 ± 0.3 h | 4.97 ± 1.4 h |
| MAKTAAALHILVKEEKLALDLLEQIKNGADFGKLAKKHSICPSGKRGGDLGEFRQGQMVPAFDKVVFSCPVLEPTGPLHTQFGYHIIKVLYRN [P0A9L5] | 4.22 ± 0.34 h | 10.6 ± 0.12 h | 6.6 ± 0.64 h | 4.65 ± 1.5 h | 4.743 ± 0.043 h | 6.25 ± 0.67 h | 6.01 ± 0.7 h | 3.05 ± 0.21 h | 5.57 ± 0.14 h | 9.11 ± 0.34 h | 7.37 ± 0.48 h | 4.54 ± 1.2 h |
